Source: patent US11725026B2, “Compositions and methods for inhibiting lactate dehydrogenase a activity” (Research Foundation for SUNY, priority 2019, dated 2023)
Where a SMILES comes first, the peptide text is derived from it. Where no end group is shown, it is not given here.

Key:
LDHA [1] = biological target: T1, LDHA (Homo sapiens, UniProt P00338); assay: Fluorescence anisotropy binding of Rhodamine-B-labeled FLCN peptides to recombinant LDHA
T1 construct: a complex of FLCN-10 peptide with full-length recombinant LDHA; 6xHis (leader of vector pRSET-A) (N); made in house; host or cells: E. coli BL21 (DE3)
Protocol: LDHA at the indicated concentrations was incubated on ice in 50 mM Tris pH 7.2, 150 mM NaCl, 1 mM TCEP, 4 mM MgCl2 with […] labelled FLCN peptide for 30 min.
Fluorescence anisotropy was measured using a SpectraMax 3 equipped with rhodamine fluorescence polarization module (lex\lem.535 nm/595 nm). Curve fitting was done in KaleidaGraph 4.0.
LDHA at the indicated concentrations was incubated on ice in 50 mM Tris pH 7.2, 150 mM NaCl, 1 mM TCEP, 4 mM MgCl2 with […] Rhodamine-B-labeled FLCN peptide for 30 min. Fluorescence anisotropy was measured in triplicate using a SpectraMax i3 equipped with rhodamine fluorescence polarization module (lex\lem.535 nm/595 nm). Curve fitting was done in KaleidaGraph 4.0.

LDHA [2] = biological target: T1, LDHA; assay: LDH activity assay (MAK066) with recombinant LDHA; assay type: biochemical; conditions: 25 ng recombinant LDHA pre-incubated with peptide 30 min on ice
Protocol: Lactate dehydrogenase activity was measured according to the manufacturer's protocol (MAK066, Sigma-Aldrich). […] Samples were then transferred to an optically clear 96-well plate and substrate mix was added to each well. Absorbance was measured at 450 nm every five minutes until saturation. […] All experiments were carried out in triplicate.
Lactate dehydrogenase activity was measured according to the manufacturer's protocol (MAK066, Sigma-Aldrich). […] Samples were then transferred to an optically clear 96-well plate and substrate mix was added to each well. Absorbance was measured at 450 nm every five min until saturation.

[3] = system: renal tumor tissue and adjacent normal kidney-tissue from a BHD patient; assay: Ex vivo peptide treatment of BHD patient renal tumor and adjacent normal tissue; design: species or system human; conditions: FLCN-10-Rhodamine B, 2 h at 37° C., fluorescence microscopy
Protocol: Tumor tissues from the BHD patient were obtained with written informed consent from the Department of Urology at SUNY (State University of New York) Upstate Medical University. At the time of partial nephrectomy, which was done with <15 min of renal ischemia, BHD tumors were dissected into 3-5 mm^3 pieces and cultured on a presoaked gelatin sponge (Johnson & Johnson) in 24-well plates containing 2 ml RPMI-1640 with 10% FBS, antibiotic/antimycotic solution. Tissues were cultured at 37° C. for 16 hr, followed by the addition of the indicated concentrations of FLCN-10-Rhod-B and further incubation at 37° C. for 2 hr.
Tumor and adjacent normal renal tissue from the BHD patient were obtained with written informed consent on an Institutional Review Board (IRB)-approved protocol from the Department of Urology at SUNY Upstate Medical University. At the time of partial nephrectomy, which was done with <15 min of renal ischemia, BHD tumors were dissected into 3- to 5-mm^3 pieces and cultured on a presoaked gelatin sponge (Johnson & Johnson) in 24-well plates containing 2 ml RPMI-1640 with 10% FBS and antibiotic/antimycotic solution. Tissues were cultured at 37° C. for 16 h, followed by the addition of the indicated concentrations of FLCN-10-Rhod-B and further incubation at 37° C. for 2 h. […]

LDHA (pTyr10-LDHA) = biological target: T2, LDHA (pTyr10-LDHA) (Homo sapiens, UniProt P00338); assay: LDHA activity in cells by pTyr10-LDHA immunoblot; assay type: cell-based
T2 construct: a panel of cancer cell lines were immunoblotted to observe levels of endogenous FLCN and pTyr10-LDHA; endogenous in cells; host or cells: Caki-1, HEK293, PC3, A549 and other human cancer cell lines
Source text: The supernatant was then transferred to a fresh microtube.

ccRCC cell lines = assay: Apoptosis / cell death in ccRCC renal cell lines (cleaved PARP/caspase-3 immunoblot, Annexin V/propidium iodide flow cytometry); assay type: cell-based, human; conditions: Caki-1 cells, Western blot, normalized for amount of peptide residing in cells

Molecule: QRMNTAFTPFL [FLCN-1, peptide derived from aa220-230 of FLCN]
- binding to LDHA (in words) (LDHA [1]; determined by anisotropy): bound tightly to LDHA
- Ka of LDHA with FLCN peptide (LDHA [1]; fluorescence polarization anisotropy, n=3): ≈ 1×10^7

Molecule: CSCC[C@H](NC(=O)[C@H](CCCNC(=N)N)NC(=O)[C@H](CCC(N)=O)NC(=O)[C@H](C)N)C(=O)N[C@@H](CC(N)=O)C(=O)N[C@H](C(=O)N[C@@H](C)C(=O)N[C@@H](Cc1ccccc1)C(=O)N[C@H](C(=O)N1CCC[C@H]1C(=O)O)[C@@H](C)O)[C@@H](C)O [FLCN-10] (H-AQRMNTAFTP-OH; N-terminus and C-terminus assumed)
- inhibitory effect on LDHA activity (LDHA [2]): 70%
- tissue penetration ex vivo [3]: able to penetrate both normal and tumor tissues

Molecule: PEGylated FLCN-10: FLCN-10 peptide modified by PEGylation to protect from cellular proteases (AQRMNTAFTP; also: PEGylated, site not given here)
- activity against LDHA in Caki-1 cells (LDHA (pTyr10-LDHA)): effective at inhibiting LDHA activity
- pro-apoptotic activity of modified FLCN-10 peptides (ccRCC cell lines): minimal pro-apoptotic activity
